We go through 2 molecules from US20200283521A1 (GRANULAR THERAPEUTICS, published 2020).

Residue numbers refer to the chain shown, from its start. Read-outs that look alike come from different tables or passages of the source. Bounds are passed on as bounds.

Assay [1] addresses T1, human C-KIT-Fc (human, UniProt P10721 26-524).
T1 construct: also called biotinylated human C-KIT-Fc; not shown: Fc part not described
The experiment in a line: direct ELISA at 1 µg/ml.

Assay [2] has as its target T2, cynomolgus monkey C-KIT-Fc (cynomolgus monkey).
T2 construct: also called cyno C-KIT-Fc
Put plainly: direct ELISA at 1 µg/ml.

The target in assay [3] is T1, human C-KIT-Fc. Put plainly: HTRF competition vs Tb-h37M IgG1.
For assay [4], the target named is T2, cynomolgus monkey C-KIT-Fc. Put plainly: HTRF competition vs Tb-h37M IgG1.
Assay [5] addresses T3, hCMET-Fc (The natural ectodomain is cleaved by furin after residue 307 into disulfide-linked alpha and beta chains. It is given here as one continuous stretch.).
T3 construct: member of the panel m9
T3 chain: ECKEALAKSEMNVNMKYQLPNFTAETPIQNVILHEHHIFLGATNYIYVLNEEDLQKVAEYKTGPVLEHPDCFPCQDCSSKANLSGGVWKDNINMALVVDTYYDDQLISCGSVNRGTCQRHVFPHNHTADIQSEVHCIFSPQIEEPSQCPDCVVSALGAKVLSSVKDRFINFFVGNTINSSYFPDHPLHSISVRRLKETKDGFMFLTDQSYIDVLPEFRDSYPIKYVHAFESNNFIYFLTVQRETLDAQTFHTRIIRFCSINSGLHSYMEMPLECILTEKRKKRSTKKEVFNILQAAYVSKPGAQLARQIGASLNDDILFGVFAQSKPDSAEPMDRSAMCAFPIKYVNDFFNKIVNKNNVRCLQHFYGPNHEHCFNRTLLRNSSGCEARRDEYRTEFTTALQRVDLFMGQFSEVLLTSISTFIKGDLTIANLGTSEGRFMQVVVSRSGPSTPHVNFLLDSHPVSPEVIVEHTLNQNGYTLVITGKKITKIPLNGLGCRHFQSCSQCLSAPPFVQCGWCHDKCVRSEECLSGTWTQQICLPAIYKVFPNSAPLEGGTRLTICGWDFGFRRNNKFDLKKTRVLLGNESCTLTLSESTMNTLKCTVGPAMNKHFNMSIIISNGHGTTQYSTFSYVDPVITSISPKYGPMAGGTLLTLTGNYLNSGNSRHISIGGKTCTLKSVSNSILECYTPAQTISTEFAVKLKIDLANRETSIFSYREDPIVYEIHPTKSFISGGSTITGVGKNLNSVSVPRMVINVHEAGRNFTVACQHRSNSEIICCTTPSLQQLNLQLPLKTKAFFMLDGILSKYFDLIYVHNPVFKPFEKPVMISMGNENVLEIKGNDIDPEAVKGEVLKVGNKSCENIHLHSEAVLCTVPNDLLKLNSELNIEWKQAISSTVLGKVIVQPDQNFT
The experiment in a line: direct ELISA on coated protein, IgG1.

Assay [6] addresses T4, hVCAM-1 (human, UniProt P19320).
T4 construct: purified recombinant protein; member of the panel m9
T4 sequence (looked up): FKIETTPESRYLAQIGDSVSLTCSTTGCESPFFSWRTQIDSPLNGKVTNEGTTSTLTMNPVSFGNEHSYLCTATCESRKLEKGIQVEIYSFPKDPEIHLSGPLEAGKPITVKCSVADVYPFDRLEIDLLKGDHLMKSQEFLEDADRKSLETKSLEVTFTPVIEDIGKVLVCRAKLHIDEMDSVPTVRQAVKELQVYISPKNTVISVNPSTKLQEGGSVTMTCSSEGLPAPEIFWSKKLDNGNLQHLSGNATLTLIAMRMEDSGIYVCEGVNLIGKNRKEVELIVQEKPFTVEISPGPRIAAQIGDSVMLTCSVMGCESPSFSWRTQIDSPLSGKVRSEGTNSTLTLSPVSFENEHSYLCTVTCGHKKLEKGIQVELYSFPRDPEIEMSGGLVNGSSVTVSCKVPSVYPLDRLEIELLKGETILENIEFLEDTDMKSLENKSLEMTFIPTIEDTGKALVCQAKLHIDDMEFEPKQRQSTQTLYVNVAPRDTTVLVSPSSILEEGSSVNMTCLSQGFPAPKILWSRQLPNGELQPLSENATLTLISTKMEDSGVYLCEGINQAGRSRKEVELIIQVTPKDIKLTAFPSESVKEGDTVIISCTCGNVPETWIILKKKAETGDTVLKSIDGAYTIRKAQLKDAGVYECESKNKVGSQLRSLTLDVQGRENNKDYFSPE
Put plainly: direct ELISA on coated protein, IgG1.

In assay [7] the target is T5, hTWEAK-Fc (human, UniProt O43508).
T5 construct: Fc fusion; member of the panel m9
T5 sequence (looked up): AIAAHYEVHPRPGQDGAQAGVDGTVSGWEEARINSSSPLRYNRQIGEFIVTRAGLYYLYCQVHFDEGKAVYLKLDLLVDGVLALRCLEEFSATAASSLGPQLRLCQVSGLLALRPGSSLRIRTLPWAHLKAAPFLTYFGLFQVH
Put plainly: direct ELISA on coated protein, IgG1.

In assay [8] the target is T6, h4-1BB-Fc.
T6 construct: member of the panel m9
Put plainly: direct ELISA on coated protein, IgG1. (In general: ELISA stands for enzyme-linked immunosorbent assay.)

For assay [9], the target named is T7, hCD4 (human, UniProt P01730).
T7 construct: purified recombinant protein; member of the panel m9
Put plainly: direct ELISA on coated protein, IgG1.

The target of assay [10] is T8, hEpCAM-Fc (human, UniProt P16422).
T8 construct: Fc fusion; member of the panel m9
T8 sequence (looked up): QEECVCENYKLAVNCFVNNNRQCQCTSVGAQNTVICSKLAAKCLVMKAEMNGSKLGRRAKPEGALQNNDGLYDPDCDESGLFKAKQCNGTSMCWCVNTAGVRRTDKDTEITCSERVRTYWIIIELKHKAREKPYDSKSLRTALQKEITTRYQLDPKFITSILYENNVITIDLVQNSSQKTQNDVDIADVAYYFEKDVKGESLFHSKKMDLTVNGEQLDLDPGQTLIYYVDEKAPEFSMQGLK
The experiment in a line: direct ELISA on coated protein, IgG1.

For assay [11], the target named is T9, hDR3-Fc (human, UniProt Q93038).
T9 construct: Fc fusion; member of the panel m9
T9 sequence (looked up): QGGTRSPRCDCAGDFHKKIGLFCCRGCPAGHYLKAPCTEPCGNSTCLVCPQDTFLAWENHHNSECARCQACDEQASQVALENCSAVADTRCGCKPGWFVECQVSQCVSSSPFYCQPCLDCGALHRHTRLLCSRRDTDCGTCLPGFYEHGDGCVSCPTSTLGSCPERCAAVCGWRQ
Put plainly: direct ELISA on coated protein, IgG1.

Assay [12] concerns the target T10, hVCAM-Fc.
T10 construct: member of the panel m9
T10 chain: T4 sequence (looked up)
Put plainly: direct ELISA on coated protein, IgG1.

The target of assay [13] is T11, hBAFFR-Fc (human, UniProt Q96RJ3).
T11 construct: Fc fusion; member of the panel m9
Put plainly: direct ELISA on coated protein, IgG1.

The target of assay [14] is T12, hDR6-Fc (human, UniProt O75509).
T12 construct: Fc fusion; member of the panel m9
T12 sequence (looked up): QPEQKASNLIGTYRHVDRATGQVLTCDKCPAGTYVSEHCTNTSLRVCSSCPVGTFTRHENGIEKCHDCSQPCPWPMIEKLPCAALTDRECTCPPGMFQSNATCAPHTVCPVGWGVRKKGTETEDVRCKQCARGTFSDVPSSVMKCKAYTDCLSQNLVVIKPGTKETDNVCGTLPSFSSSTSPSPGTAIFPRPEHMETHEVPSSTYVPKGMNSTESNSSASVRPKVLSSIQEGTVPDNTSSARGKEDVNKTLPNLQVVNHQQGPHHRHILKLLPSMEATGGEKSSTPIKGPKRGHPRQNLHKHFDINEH
Put plainly: direct ELISA on coated protein, IgG1.

The target of assay [15] is T13, hLTBR-Fc (human, UniProt P36941).
T13 construct: Fc fusion; member of the panel m9
Put plainly: direct ELISA on coated protein, IgG1.

The target of assay [16] is T14, hICAM-1-Fc (human, UniProt P05362).
T14 construct: Fc fusion; member of the panel m9
Put plainly: direct ELISA on coated protein, IgG1.

Assay [17] addresses T15, hOX40-Fc.
T15 construct: member of the panel m9
T15 chain: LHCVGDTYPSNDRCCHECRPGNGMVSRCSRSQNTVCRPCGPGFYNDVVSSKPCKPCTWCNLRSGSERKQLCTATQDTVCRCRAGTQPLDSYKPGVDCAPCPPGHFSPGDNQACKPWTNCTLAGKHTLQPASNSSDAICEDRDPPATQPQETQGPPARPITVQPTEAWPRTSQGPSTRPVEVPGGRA
The experiment in a line: direct ELISA on coated protein, IgG1.

In assay [18] the target is T1, human C-KIT-Fc. The experiment in a line: direct titration ELISA on coated C-KIT-Fc, IgG1 format.
Assay [19] concerns the target T3, hCMET-Fc. Put plainly: direct ELISA on coated protein, IgG1.
Assay [20] addresses T4, hVCAM-1. Put plainly: direct ELISA on coated protein, IgG1. This is another data set of the same source.
For assay [21], the target named is T5, hTWEAK-Fc. The experiment in a line: direct ELISA on coated protein, IgG1. The source holds these as a separate data set.
The target in assay [22] is T6, h4-1BB-Fc. The experiment in a line: direct ELISA on coated protein, IgG1. This is another data set of the same source.
For assay [23], the target named is T7, hCD4. Put plainly: direct ELISA on coated protein, IgG1. This is another data set of the same source.
For assay [24], the target named is T8, hEpCAM-Fc. The experiment in a line: direct ELISA on coated protein, IgG1. This is another data set of the same source.
In assay [25] the target is T9, hDR3-Fc. Put plainly: direct ELISA on coated protein, IgG1. This is another data set of the same source.
Assay [26] deals with T10, hVCAM-Fc. Put plainly: direct ELISA on coated protein, IgG1.
The target of assay [27] is T11, hBAFFR-Fc. Put plainly: direct ELISA on coated protein, IgG1. This is another data set of the same source.
The target in assay [28] is T12, hDR6-Fc. The experiment in a line: direct ELISA on coated protein, IgG1. The source holds these as a separate data set.
Assay [29] has as its target T13, hLTBR-Fc. Put plainly: direct ELISA on coated protein, IgG1. The source holds these as a separate data set.
The target in assay [30] is T14, hICAM-1-Fc. The experiment in a line: direct ELISA on coated protein, IgG1. The source holds these as a separate data set.
The target in assay [31] is T15, hOX40-Fc. The experiment in a line: direct ELISA on coated protein, IgG1.

T14 sequence (P05362 28-480 limits assumed): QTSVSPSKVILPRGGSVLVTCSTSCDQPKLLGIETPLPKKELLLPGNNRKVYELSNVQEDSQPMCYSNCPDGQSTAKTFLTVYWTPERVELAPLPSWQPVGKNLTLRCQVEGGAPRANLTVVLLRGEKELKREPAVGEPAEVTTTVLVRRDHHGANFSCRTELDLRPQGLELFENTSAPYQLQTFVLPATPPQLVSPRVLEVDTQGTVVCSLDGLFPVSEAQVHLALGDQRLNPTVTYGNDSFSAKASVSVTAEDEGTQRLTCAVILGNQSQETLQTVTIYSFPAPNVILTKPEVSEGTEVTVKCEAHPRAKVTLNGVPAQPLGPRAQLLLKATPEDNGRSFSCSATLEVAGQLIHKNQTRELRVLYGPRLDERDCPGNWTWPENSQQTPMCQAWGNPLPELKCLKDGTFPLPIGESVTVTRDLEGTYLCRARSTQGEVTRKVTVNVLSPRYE
T13 sequence (P36941 28-227 limits assumed): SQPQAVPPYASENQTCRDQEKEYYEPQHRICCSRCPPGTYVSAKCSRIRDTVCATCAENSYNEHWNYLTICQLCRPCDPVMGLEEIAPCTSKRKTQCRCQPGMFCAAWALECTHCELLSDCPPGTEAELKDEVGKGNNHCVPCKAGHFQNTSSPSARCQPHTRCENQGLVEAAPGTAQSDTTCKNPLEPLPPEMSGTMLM
T11 sequence (Q96RJ3 7-71 limits assumed): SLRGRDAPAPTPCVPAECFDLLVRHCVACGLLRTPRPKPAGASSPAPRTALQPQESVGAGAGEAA
T6 sequence (chain, as listed by the source limits assumed): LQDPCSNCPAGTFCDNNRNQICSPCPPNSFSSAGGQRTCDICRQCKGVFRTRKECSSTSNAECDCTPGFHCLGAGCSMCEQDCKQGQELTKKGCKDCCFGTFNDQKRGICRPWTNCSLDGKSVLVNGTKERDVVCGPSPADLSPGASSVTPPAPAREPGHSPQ

B1: E-C7 (antibody, IgG1, V domains shown)
VH: QVQLVQSGAEVKKPGASVKVSCKASGYTFTDYYMNWVRQAPGQGLEWMGRIYPGSGNTYYAQKFQGRVTMTRDTSTSTVYMELSSLRSEDTAVYYCARGVYYYDYWGQGTLVTVSS
VL: DIQMTQSPSSLSASVGDRVTITCRASQGIRTNLAWFQQKPGKAPKSLIYSASSLQSGVPSRFSGSGSGTDFTLTISSLQPEDFATYYCQQYNSYPRTFGGGTKVEIK
notes: IgG1; also called C-KIT-E-C7
For the molecule B1, the values for the OD450 nm in [1] and in assay [2] were more than 1.8 OD450 nm and more than 2 OD450 nm, respectively. The IC50 is 0.028 µg/mL in assay [3] and 0.051 µg/mL in assay [4]. Besides, the binding result in assay [5], in [6], in assay [7], in assay [8], in assay [9] and in assay [10] was “no binding (tested: 1 µg/ml)” throughout. Also, the binding result in assay [11], in [12], in assay [13], in assay [14], in assay [15] and in assay [16] was “no binding (tested: 1 µg/ml)” each time. Moreover, the binding result in [17] is “no binding (tested: 1 µg/ml)”.

B2: E-C2 (antibody, IgG1, V domains shown)
VH: B1 VH with Y103L
VL: B1 VL with L33V, F36L, S53Y, L54R
notes: IgG1; also called C-KIT-E-C2
Turning to B2, the OD450 nm in assay [1] is more than 1.8 OD450 nm; in [2] it was more than 2 OD450 nm. In addition, the 50% effective concentration (EC50 (read off the curve)) in assay [18] is approximately 0.1 µg/mL. The binding result in [19], in assay [20], in assay [21], in assay [22], in [23] and in [24] was “no binding (tested: 1 µg/ml)” in each case. Moreover, the binding result in [25], in assay [26], in [27], in assay [28], in [29] and in [30] was “no binding (tested: 1 µg/ml)” each time. In [31], the binding result is recorded as “no binding (tested: 1 µg/ml)”.

What is called IC50 is the concentration needed to halve the response being measured. One may read the EC50 (read off the curve) as the concentration at which the effect is half-maximal.
